Source: patent US20210347908A1 (ELPISCIENCE SUZHOU BIOPHARMA, published 2021)

T1: full length cyno SIRPα stably expressed on CHOK1 cells (cynomolgus monkey, UniProt A0A2K5VYQ9 31-507)
T1 construct: whole, on cells; also called CHOK1-cyno SIRPα-2A2 cells; CHOK1-cyno SIRPα
T1 sequence: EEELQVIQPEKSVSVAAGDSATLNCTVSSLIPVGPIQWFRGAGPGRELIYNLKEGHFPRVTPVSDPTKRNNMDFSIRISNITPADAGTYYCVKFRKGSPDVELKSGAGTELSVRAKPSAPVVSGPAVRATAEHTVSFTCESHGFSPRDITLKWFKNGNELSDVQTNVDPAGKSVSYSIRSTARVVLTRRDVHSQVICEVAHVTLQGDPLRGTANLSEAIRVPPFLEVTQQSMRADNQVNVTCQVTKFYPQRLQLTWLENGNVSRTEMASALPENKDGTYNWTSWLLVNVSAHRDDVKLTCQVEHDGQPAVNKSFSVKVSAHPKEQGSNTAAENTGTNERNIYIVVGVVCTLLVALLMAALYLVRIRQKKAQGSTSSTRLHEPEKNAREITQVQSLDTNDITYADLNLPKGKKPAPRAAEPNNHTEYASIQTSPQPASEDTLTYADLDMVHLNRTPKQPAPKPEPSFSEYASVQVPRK

T2: full length C57BL/6 mouse SIRPα stably expressed on CHOK1 cells (mouse (C57BL/6), UniProt P97797 32-513)
T2 construct: whole, on cells; also called CHOK1-C57BL/6 mouse SIRPα-2.22 cells
T2 sequence (looked up): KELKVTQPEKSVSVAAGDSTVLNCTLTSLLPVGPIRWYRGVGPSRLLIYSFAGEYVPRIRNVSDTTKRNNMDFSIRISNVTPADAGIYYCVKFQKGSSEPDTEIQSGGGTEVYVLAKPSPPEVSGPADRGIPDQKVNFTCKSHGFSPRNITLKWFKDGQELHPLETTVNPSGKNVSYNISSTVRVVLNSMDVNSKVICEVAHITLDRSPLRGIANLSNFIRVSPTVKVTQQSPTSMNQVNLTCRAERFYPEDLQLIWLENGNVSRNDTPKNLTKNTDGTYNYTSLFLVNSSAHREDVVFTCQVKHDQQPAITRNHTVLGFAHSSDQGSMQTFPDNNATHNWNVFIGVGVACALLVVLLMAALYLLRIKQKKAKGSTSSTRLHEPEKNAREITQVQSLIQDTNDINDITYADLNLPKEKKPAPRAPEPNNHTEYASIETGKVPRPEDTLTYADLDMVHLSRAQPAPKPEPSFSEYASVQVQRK


Tests used:
[1] = molecular target: T1, full length cyno SIRPα stably expressed …; test: FACS on CHOK1 cells
[2] = molecular target: T3, biotin labeled soluble human SIRPα v1 ECD recombinant protein (human, UniProt P78324 31-373, biotin labeled); test: competitive ELISA; competitor 060
T3 construct: extracellular domain
T3 sequence (P78324 31-373): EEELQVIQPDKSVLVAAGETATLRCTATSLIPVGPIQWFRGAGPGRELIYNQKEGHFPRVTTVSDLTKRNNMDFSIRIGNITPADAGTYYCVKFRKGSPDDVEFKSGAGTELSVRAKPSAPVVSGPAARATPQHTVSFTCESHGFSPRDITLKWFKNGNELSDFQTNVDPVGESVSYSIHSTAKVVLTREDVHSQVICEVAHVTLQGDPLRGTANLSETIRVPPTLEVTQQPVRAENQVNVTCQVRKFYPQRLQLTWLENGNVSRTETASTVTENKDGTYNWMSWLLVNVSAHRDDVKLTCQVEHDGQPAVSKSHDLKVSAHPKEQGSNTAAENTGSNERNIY
Method: (§1) Competitive ELISA assay was used for epitope binning of 9 functional antibodies. Briefly excessive competitor antibody and biotin labeled soluble human SIRPα v1 ECD recombinant protein were co-incubated with ELISA microplate coated antibody. After washing, HRP-SA was added and incubated at 37° C. for 1 hour. Then, […] of TMB solution (Biotechnology) was added. After incubation for 15 minutes at room temperature, the reaction was stopped by the addition of […] of 1N HCl. OD 450 nm was read. Competition ratio was calculated. The antibodies that can compete each other for binding to SIRPα have the similar binding epitope.

[3] = molecular target: T3, biotin labeled soluble human SIRPα v1 …; test: competitive ELISA; competitor 022
Method: as §1

[4] = molecular target: T3, biotin labeled soluble human SIRPα v1 …; test: competitive ELISA; competitor 050
Method: as §1

[5] = molecular target: T3, biotin labeled soluble human SIRPα v1 …; test: competitive ELISA; competitor 055
Method: as §1

[6] = molecular target: T2, full length C57BL/6 mouse SIRPα stably …; test: FACS on CHOK1 cells

Binder	MFI at 10 nM [1]	% Competition [2]	% Competition [3]	% Competition [4]	% Competition [5]	binding result [6]	binding result [1]
Antibody 035 (hybridoma antibody) (antibody, V domains shown, mouse hybridoma antibody) VH: QIQLVQSGPELRKPGETVKISCKASGYSFTNYAMNWVKQAPGKVLKWMGFINTYTGEPTYADDFKGRFAFSLETSASTAYLQINNLKNEDTATYFCTRTRGYYDFDGGAFDYWGQGTSLTVSS VL: DIVMTQSQKFMSTSIGDRVSVTCKASQNVGTHLAWYQQKPGQSPKALIFSASYRYIGVPDRFTGSGSGTDFTLTITNVQSEDLAEYFCQQYNTYPLTFGAGTKLELK	8310 MFI	-1%	-1%	-3%	-1%	–	–
Antibody 001 (hybridoma antibody) (antibody, V domains shown, mouse hybridoma antibody) VH: EVKLEESGGGLVQPGGSMKLSCVASGFTFRNYWMNWVRQSPERGLEWIAEISLKSNTYATHYAESVKGRFAISRDGSKSSFYLQMNDLRAEDTGIYYCTTFTKVVADWHLDVWGAGTTVTVSS VL: DVLMTQTPLSLPVSLGDQASISCRSSQNIVHSNGNTYLEWYLQKPGQSPKLLIYKVSNRFSGVPDRFSGSGSGTDFTLRISRVEAEDLGVYYCFQGSHVPFTFGSGTKLEIK	8030 MFI	19%	-19%	5%	4%	no binding (tested: 100 nM)	–
Antibody 032 (hybridoma antibody) (antibody, V domains shown, mouse hybridoma antibody) VH: EVRLEESGGGLVQPGGSMKLSCVVSGFTFRNYWMNWVRQSPERGLEWIAEITLKSNTYATHYAESVKGRFAISRDDSKSSFYLQMNDLRPEDTGIYYCTTFTKVVADWHLDVWGAGTTVTVSS VL: DVLMTQTPLSLPVNLGDQASISCRSSQNIVHSNGNTYLEWYLQKPGQSPKLLIYKVSNRFSGVPDRFSGSGSGTDFTLRISRVEAEDLGVYYCFQGSHVPFTFGSGTKLEIK	6860 MFI	7%	1%	4%	3%	no binding (tested: 100 nM)	–
Antibody 002 (hybridoma antibody) (antibody, V domains shown, mouse hybridoma antibody) VH: EVKLEESGGGLVQPGGSMILSCVASGFTFRNYWMNWVRQSPERGLEWIAEITLKSNTYATHYAESVKGRFAISRDDSKSSFYLQMNDLRPEDTGIYYCTTFTKVVADWHLDVWGAGTTVTVSS VL: DVLMTQTPLSLPVSLGDQASISCRSSQNIVHSNGNTYLEWYLQKPGQSPKLLIYKISNRFSGVPDRFSGSGSGTDFTLRISRVEAEDLGVYYCFQGSHVPFTFGSGTKLEIQ	7540 MFI	-10%	-5%	-13%	-16%	no binding (tested: 100 nM)	–
reference antibody HEFLB (antibody, V domains shown) VH: EVQLVQSGAEVKKPGESLRISCKASGYSFTSYWVHWVRQMPGKGLEWMGNIDPSDSDTHYSPSFQGHVTLSVDKSISTAYLQLSSLKASDTAMYYCVRGGTGTLAYFAYWGQGTLVTVSS VL: DVVMTQSPLSLPVTLGQPASISCRSSQSLVHSYGNTYLYWFQQRPGQSPRLLIYRVSNRFSGVPDRFSGSGSGTDFTLKISRVEAEDVGVYYCFQGTHVPYTFGGGTKVEIK	–	7%	4%	4%	1%	–	no binding (tested: 10 nM)

Continued, values first:

MFI at 10 nM [1]	% Competition [2]	% Competition [3]	% Competition [4]	% Competition [5]	binding result [6]	binding result [1]	Binder
–	93%	10%	14%	7%	no binding (tested: 100 nM)	no binding (tested: 10 nM)	Antibody 060 (hybridoma antibody) (antibody, V domains shown, mouse hybridoma antibody) VH: QVQLKESGPGLVAPSESLSITCTVSGFSLTNYDISWIRQSPGKGLEWLGVIWTGGDTNFNSAFMSRLSISKDKSKSQVFLKLNSLQTDDTAIYYCVRVQYFGGSYGPMDYWGQGISVTVSS VL: DIQMTQASSYLSVSLGGRVTITCEASDHINDWLAWYQQTPGNAPRLLISGATSLETGVPSRFSGSGSGKDYTLSITSLQTEDIATYYCQQYWNTPLTFGAGTRLELK
6430 MFI	26%	81%	79%	1%	no binding (tested: 100 nM)	–	Antibody 022 (hybridoma antibody) (antibody, V domains shown, mouse hybridoma antibody) VH: QIQLVQSGPELKKPGETVKISCKASGYTFTDYAMHWVKQAPGKGLKWMGWKNTETGESTYAEDFKGRFAFFLETSASTAYLQINNVKNEDTATYFCARGGYGSNYVMDYWGQGTSVIVSS VL: DIQMTQSSSSFSVSLGDRVTITCKASEDIYNRLAWYQQKPGNAPRLLISGATSLETGVPSRFSGSGSGKDYTLSITSLQTEDVATYYCQQYWNSPRTFGGGTKLEIK
14300 MFI	-1%	-5%	7%	-17%	no binding (tested: 100 nM)	–	Antibody 074 (hybridoma antibody) (antibody, V domains shown, mouse hybridoma antibody) VH: QVQLQQPRAELVKPGASVMLSCKASGYTFSSYWIHWVRQGPGQGLEWIGLIHPNSGNTDCSETFKNKATLTVDTSSSTAYMQLSSLASEDSAVYYCARDGASYDWFVHWGQGTLVTVSA VL: not shown
13600 MFI	17%	79%	83%	-16%	no binding (tested: 100 nM)	–	Antibody 050 (hybridoma antibody) (antibody, V domains shown, mouse hybridoma antibody) VH: QIQLVQSGPELKKPGETVKISCKASGYTFTHYSMHWVKQAPGKGLKWMGWINTETAEPTYVDDFKGRFAFSLEASASTAFFQINNLKNEDTATYFCARGGLRQGDYWGQGTTLTVSS VL: QIVLTQSPPIMSASPGEKVTLTCSATSSVSASYLYWFQQKPGSSPKLWIYSTSNLASGVPARFSGSGSGTSYSLTISNMEPADAASYFCHQWSSYPYTFGGGTKLEIK
37900 MFI	10%	8%	7%	0%	–	–	reference antibody 29-AM4-5 (antibody, V domains shown) VH: EVQLVESGGGLVQPGGSLRLSCAASGFNISYYFIHWVRQAPGKGLEWVASVYSSFGYTYYADSVKGRFTISADTSKNTAYLQMNSLRAEDTAVYYCARFTFPGLFDGFFGAYLGSLDYWGQGTLVTVSS VL: DIQMTQSPSSLSASVGDRVTITCRASQSVSSAVAWYQQKPGKAPKLLIYSASSLYSGVPSRFSGSRSGTDFTLTISSLQPEDFATYYCQQAVNWVGALVTFGQGTKVEIK
